A word on the Kd: it is the constant that tells how readily two partners part at equilibrium. Lower therefore signals higher affinity.

Like-named read-outs stand apart in the source and are kept apart here.

In paper PMC3105389 one finds binding result and Kd data, which are given here for eight molecules.

Data set [1] addresses T1, MobMN199 (MobM relaxase domain) (Streptococcus plasmid pMV158 (plasmid …, UniProt P13925 1-199)).
T1 sequence: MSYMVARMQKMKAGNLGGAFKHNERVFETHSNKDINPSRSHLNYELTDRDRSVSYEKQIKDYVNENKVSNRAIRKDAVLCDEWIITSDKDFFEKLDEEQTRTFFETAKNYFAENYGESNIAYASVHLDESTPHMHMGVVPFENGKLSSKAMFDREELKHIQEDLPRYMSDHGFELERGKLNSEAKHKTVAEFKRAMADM
The data set is described as follows: competition.

Data set [2] addresses T1, MobMN199 (MobM relaxase domain). The data set is described as follows: competition. The source holds these as a separate data set.
Data set [3] shares this target. The data set is described as follows: competition. This is another data set of the same source.
Data set [4] shares this target. Put plainly: EMSA. (A gel shift assay detects complexes by their altered migration in electrophoresis.)

As to ACTTTATGAATATAAAGTATAGTGTG (ssDNA) [IR1+8 26-mer], in data set [1], the binding result is listed as “binds”. As to GAATATAAAGT (ssDNA) [IR1-R 11-mer], the binding result in data set [2] is on record as “no binding”.

Regarding GTATAGTGTG (ssDNA) [10-NIC 10-mer], in data set [3], the binding result is “no binding”.

With ACTTTATGAATATAAAGT (ssDNA) [IR1 18-mer], the binding result in data set [3] is on record as “no binding”. Consider GCACACACTTTATGAATATAAAGTATAGTGTGTTATACTTTA (ssDNA) [ORIT 42-mer], for which binding in data set [4] was characterised by a dissociation constant (Kd) of 58 ± 6 nM. With GCACACACTTTATGA (ssDNA) [IR3-L 15-mer], the binding result in data set [2] is reported as “no binding”.

Consider TAAAGTATAGTGTGTTATACTTTA (ssDNA) [IR2 24-mer], for which the binding result in data set [2] was “no binding”. Molecule GCACACACTTTATGAATATAAAGTATAGTGTG (ssDNA) [IR3 32-mer] displayed a Kd in data set [4] of 60 ± 7 nM.
